Substitutions are numbered along the chain they refer to. Bounds are passed on as bounds.

The record followed here is patent US20110151450.

Common to all, as to assay: cleavage_in_vitro
Data set [1] has as its system T1, BsmAI-WT (Bacillus stearothermophilus).
T1 sequence: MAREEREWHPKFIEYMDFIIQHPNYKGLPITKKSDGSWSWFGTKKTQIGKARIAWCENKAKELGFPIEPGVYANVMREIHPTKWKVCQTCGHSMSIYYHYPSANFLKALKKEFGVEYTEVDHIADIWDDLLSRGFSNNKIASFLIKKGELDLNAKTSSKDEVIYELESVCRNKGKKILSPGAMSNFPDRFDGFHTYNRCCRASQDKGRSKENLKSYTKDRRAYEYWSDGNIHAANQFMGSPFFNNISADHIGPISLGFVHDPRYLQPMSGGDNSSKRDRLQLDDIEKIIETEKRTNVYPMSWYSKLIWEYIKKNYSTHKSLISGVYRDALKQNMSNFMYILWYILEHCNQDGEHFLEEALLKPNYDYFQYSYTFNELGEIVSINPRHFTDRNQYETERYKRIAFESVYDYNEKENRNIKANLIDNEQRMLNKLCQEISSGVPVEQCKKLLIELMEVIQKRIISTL
The note with it: NEB4, relative activity 100%.

The subject of data set [2] is T2, BsmAI-HF N212A (Bacillus stearothermophilus).
T2 sequence: T1 sequence with N212A
The note with it: NEB4, relative activity 100%.

In data set [3] the test system is T3, BsmBI-WT (Bacillus stearothermophilus).
T3 sequence: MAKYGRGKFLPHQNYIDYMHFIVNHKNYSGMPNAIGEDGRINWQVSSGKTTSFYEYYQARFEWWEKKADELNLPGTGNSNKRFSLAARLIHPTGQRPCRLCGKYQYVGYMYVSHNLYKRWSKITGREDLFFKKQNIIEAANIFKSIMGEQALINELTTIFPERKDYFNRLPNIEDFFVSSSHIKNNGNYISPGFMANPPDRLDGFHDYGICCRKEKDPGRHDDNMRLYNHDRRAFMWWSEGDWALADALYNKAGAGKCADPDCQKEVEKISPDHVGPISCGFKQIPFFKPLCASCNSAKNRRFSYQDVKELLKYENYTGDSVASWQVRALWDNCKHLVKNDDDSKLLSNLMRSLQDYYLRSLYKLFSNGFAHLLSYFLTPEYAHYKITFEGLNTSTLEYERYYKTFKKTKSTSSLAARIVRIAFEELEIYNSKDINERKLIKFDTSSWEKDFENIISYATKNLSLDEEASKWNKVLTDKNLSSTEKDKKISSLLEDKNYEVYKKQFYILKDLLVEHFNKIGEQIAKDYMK
The note with it: NEB4, relative activity 25%.

Data set [4] deals with T4, BsmBI-HF W238A (Bacillus stearothermophilus).
T4 sequence: T3 sequence with W238A
Conditions: NEB4, relative activity 100%.

The subject of data set [5] is T5, BstXI-HF N65T (Bacillus stearothermophilus).
T5 sequence: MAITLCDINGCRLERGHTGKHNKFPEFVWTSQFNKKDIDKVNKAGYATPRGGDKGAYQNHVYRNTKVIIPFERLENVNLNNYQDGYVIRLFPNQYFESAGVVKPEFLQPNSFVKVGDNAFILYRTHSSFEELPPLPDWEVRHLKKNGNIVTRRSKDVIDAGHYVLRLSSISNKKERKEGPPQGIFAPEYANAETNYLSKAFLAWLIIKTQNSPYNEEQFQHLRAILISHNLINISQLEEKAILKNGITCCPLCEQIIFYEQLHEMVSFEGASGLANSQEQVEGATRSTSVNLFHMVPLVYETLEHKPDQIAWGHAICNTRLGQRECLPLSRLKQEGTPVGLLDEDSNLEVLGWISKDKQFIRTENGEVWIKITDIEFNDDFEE
Conditions: NEB4, relative activity 100%.

Data set [6] deals with T6, BstXI-WT (Bacillus stearothermophilus).
T6 sequence: T5 sequence with T65N
The note with it: NEB4, relative activity 100%.

In data set [7] the test system is T7, DraIII-WT (Deinococcus radiophilus).
T7 sequence: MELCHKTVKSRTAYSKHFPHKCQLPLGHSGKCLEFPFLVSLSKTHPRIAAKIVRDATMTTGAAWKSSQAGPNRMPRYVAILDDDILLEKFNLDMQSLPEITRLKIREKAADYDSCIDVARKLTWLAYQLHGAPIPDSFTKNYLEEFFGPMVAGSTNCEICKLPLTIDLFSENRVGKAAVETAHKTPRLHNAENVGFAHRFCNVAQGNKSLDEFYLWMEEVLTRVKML
The note with it: NEB4, 37 C 1 h, relative activity 50%.

The test system of data set [8] is T8, DraIII-HF T181A (Deinococcus radiophilus).
T8 sequence: T7 sequence with T181A
The note with it: NEB4, 37 C 1 h, relative activity 100%; Table 1 gives >=2000.

Data set [9] addresses T9, HindIII-WT (Haemophilus influenzae) (UniProt P43870).
T9 sequence: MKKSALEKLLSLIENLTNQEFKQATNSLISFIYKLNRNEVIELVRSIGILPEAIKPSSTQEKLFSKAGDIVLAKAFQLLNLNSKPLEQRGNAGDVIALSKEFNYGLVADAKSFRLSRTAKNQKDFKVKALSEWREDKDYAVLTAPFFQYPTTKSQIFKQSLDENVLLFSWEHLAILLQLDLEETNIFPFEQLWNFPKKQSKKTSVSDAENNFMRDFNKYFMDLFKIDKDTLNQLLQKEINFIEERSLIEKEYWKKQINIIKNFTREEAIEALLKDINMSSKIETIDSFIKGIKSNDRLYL
The note with it: NEB4, relative activity 50%.

Data set [10] concerns T10, PspGI-HF R75A (Pyrococcus species).
T10 sequence: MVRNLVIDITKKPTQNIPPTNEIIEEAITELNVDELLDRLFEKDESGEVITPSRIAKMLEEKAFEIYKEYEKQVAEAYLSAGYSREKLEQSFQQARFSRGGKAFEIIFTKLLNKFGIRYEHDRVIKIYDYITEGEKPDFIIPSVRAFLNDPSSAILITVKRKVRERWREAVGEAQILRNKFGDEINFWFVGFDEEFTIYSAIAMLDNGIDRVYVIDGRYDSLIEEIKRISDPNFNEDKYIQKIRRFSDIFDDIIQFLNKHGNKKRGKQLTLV
Conditions: NEB4, relative activity 100%.

Data set [11] concerns the target T11, SfiI-HF R114A (Streptomyces fimbriatus) (UniProt O52512).
T11 sequence: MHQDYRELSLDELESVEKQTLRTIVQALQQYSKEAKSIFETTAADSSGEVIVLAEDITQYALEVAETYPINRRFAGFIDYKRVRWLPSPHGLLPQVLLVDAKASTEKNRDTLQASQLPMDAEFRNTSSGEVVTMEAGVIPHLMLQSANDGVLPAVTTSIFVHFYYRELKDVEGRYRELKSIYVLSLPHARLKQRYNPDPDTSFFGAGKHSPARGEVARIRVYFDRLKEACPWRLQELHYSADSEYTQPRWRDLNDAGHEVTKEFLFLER
The note with it: NEB4, relative activity 100%.

Data set [12] concerns T12, PspGI-WT (Pyrococcus species).
T12 sequence: T10 sequence with A75R
Conditions: NEB4, relative activity 100%.

Data set [13] has as its target T13, SfiI-WT (Streptomyces fimbriatus) (UniProt O52512).
T13 sequence: T11 sequence with A114R
The note with it: NEB4, relative activity 25%.

As to FX174 DNA, the activity (fidelity index) in [1] is 250; in data set [2] it was above 4000.
Consider lambda DNA, BsmBI sites, for which the activity (fidelity index) in data set [3] was found to be 4; in [4], 250.
Turning to lambda DNA, BstXI sites, the activity (fidelity index) is above 1000 in data set [5] and 32 in [6].
For lambda DNA, DraIII sites, the results for the activity (fidelity index) in [7] and in data set [8] were 0.5 and above 64000, respectively.
lambda DNA, HindIII sites: the activity (fidelity index) in data set [9] was found to be 32.
As to pBC4 plasmid, the activity (fidelity index) was above 4000 in data set [10], above 8000 in data set [11], 1 in data set [12] and 64 in [13].
